Drawing on the supplement of paper PMC5998384, this text covers thermal stability score and melting temperature for eight substances.

The test system of data set [1] is HeLa Kyoto. Nature of the data set: thermal stability score vs G1/S (z-score of summed log2 fold changes over temperatures); higher = more thermally stable than in G1/S.
The subject of data set [2] is HeLa Kyoto. Nature of the data set: melting temperature (median over replicates), in situ; higher = more thermally stable.
Where [3] appears, read: cell cycle stage: early G1 (4.5 h after nocodazole release).
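For melting temperature (median over replicates), in situ in this document: HeLa Kyoto cells synchronized by double thymidine or nocodazole block, proteins quantified by TMT10plex mass spectrometry, three independent biological replicates.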
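For thermal stability score vs G1/S (z-score of summed log2 fold changes over temperatures) in this document: synchronized HeLa Kyoto cells, proteins quantified by TMT10plex mass spectrometry, three biological replicates, mitosis taken 0.5 h after nocodazole release, G1/S directly after double thymidine block.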

Regarding “MREIVHLQAGQCGNQIGAKFWEVISDEHGIDPTGTYHGDSDLQLERINVYYNEATGGKYVPRAVLVDLEPGTMDSVRSGPFGQIFRPDNFVFGQSGAGNNWAKGHYTEGAELVDSVLDVVRKEAESCDCLQGFQLTHSLGGGTGSGMGTLLISKIREEYPDRIMNTFSVVPSPKVSDTVVEPYNATLSVHQLVENTDETYCIDNEALYDICFRTLKLTTPTYGDLNHLVSATMSGVTTCLRFPGQLNADLRKLAVNMVPFPRLHFFMPGFAPLTSRGSQQYRALTVPELTQQMFDAKNMMAACDPRHGRYLTVAAVFRGRMSMKEVDEQMLNVQNKNSSYFVEWIPNNVKTAVCDIPPRGLKMSATFIGNSTAIQELFKRISEQFTAMFRRKAFLHWYTGEGMDEMEFTEAESNMNDLVSEYQQYQDATAEEEGEFEEEAEEEVA [TUBB4B]”, the thermal stability score with HeLa Kyoto [1] (setting [3]) was 0.304; in the data set on HeLa Kyoto [1] (cell cycle stage: mitosis), -1.31. Moreover, in the data set on HeLa Kyoto [2] (cell cycle stage: mitosis), the melting temperature came out at 54.4 °C.
In the case of “MESALAVPRLPPHDPGTPVLSVVDMHTGGEPLRIVLAGCPEVSGPTLLAKRRYMRQHLDHVRRRLMFEPRGHRDMYGAVLVPSELPDAHLGVLFLHNEGYSSMCGHAVLALGRFALDFGLVPAPPAGTREARVNIHCPCGLVTAFVACEDGRSHGPVRFHSVPAFVLATDLMVDVPGHGKVMVDIAYGGAFYAFVTAEKLGLDICSAKTRDLVDAASAVTEAVKAQFKINHPDSEDLAFLYGTILTDGKDAYTKEPTTNICVFADEQVDRSPTGSGVTARIALQYHKGLLELNQMRAFKSSATGSVFTGKAVREAKCGDFKAVIVEVSGQAHYTGTASFIIEDDDPLRDGFLLK [L3HYPDH]”, the values for the thermal stability score in the data set with HeLa Kyoto [1] (setting [3]) and with HeLa Kyoto [1] (cell cycle stage: mitosis) were 0.886 and 0.62, respectively. Besides, the melting temperature with HeLa Kyoto [2] (cell cycle stage: G1/S) amounted to 55.6 °C; with HeLa Kyoto [2] (cell cycle stage: mitosis) it was 54.4 °C.
Regarding “MGLPALEFSDCCLDSPHFRETLKSHEAELDKTNKFIKELIKDGKSLISALKNLSSAKRKFADSLNEFKFQCIGDAETDDEMCIARSLQEFATVLRNLEDERIRMIENASEVLITPLEKFRKEQIGAAKEAKKKYDKETEKYCGILEKHLNLSSKKKESQLQEADSQVDLVRQHFYEVSLEYVFKVQEVQERKMFEFVEPLLAFLQGLFTFYHHGYELAKDFGDFKTQLTISIQNTRNRFEGTRSEVESLMKKMKENPLEHKTISPYTMEGYLYVQEKRHFGTSWVKHYCTYQRDSKQITMVPFDQKSGGKGGEDESVILKSCTRRKTDSIEKRFCFDVEAVDRPGVITMQALSEEDRRLWMEAMDGREPVYNSNKDSQSEGTAQLDSIGFSIIRKCIHAVETRGINEQGLYRIVGVNSRVQKLLSVLMDPKTASETETDICAEWEIKTITSALKTYLRMLPGPLMMYQFQRSFIKAAKLENQESRVSEIHSLVHRLPEKNRQMLQLLMNHLANVANNHKQNLMTVANLGVVFGPTLLRPQEETVAAIMDIKFQNIVIEILIENHEKIFNTVPDMPLTNAQLHLSRKKSSDSKPPSCSERPLTLFHTVQSTEKQEQRNSIINSSLESVSSNPNSILNSSSSLQPNMNSSDPDLAVVKPTRPNSLPPNPSPTSPLSPSWPMFSAPSSPMPTSSTSSDSSPVRSVAGFVWFSVAAVVLSLARSSLHAVFSLLVNFVPCHPNLHLLFDRPEEAVHEDSSTPFRKAKALYACKAEHDSELSFTAGTVFDNVHPSQEPGWLEGTLNGKTGLIPENYVEFL [ARHGAP26]”, the thermal stability score in the data set on HeLa Kyoto [1] (setting [3]) was -0.227; with HeLa Kyoto [1] (cell cycle stage: mitosis), -0.147. Further, the melting temperature in the data set on HeLa Kyoto [2] (cell cycle stage: mitosis) was determined as 52 °C.
For “MAAAVAAALARLLAAFLLLAAQVACEYGMVHVVSQAGGPEGKDYCILYNPQWAHLPHDLSKASFLQLRNWTASLLCSAADLPARGFSNQIPLVARGNCTFYEKVRLAQGSGARGLLIVSRERLVPPGGNKTQYDEIGIPVALLSYKDMLDIFTRFGRTVRAALYAPKEPVLDYNMVIIFIMAVGTVAIGGYWAGSRDVKKRYMKHKRDDGPEKQEDEAVDVTPVMTCVFVVMCCSMLVLLYYFYDLLVYVVIGIFCLASATGLYSCLAPCVRRLPFGKCRIPNNSLPYFHKRPQARMLLLALFCVAVSVVWGVFRNEDQWAWVLQDALGIAFCLYMLKTIRLPTFKACTLLLLVLFLYDIFFVFITPFLTKSGSSIMVEVATGPSDSATREKLPMVLKVPRLNSSPLALCDRPFSLLGFGDILVPGLLVAYCHRFDIQVQSSRVYFVACTIAYGVGLLVTFVALALMQRGQPALLYLVPCTLVTSCAVALWRRELGVFWTGSGFAKVLPPSPWAPAPADGPQPPKDSATPLSPQPPSEEPATSPWPAEQSPKSRTSEEMGAGAPMREPGSPAESEGRDQAQPSPVTQPGASA [SPPL2B]”, the thermal stability score in the data set on HeLa Kyoto [1] (setting [3]) was 0.962; with HeLa Kyoto [1] (cell cycle stage: mitosis), -2.37.
With “MDDSGELGGLETMETLTELGDELTLGDIDEMLQFVSNQVGEFPDLFSEQLCSSFPGSGGSGSSSGSSGSSSSSSNGRGSSSGAVDPSVQRSFTQVTLPSFSPSAASPQAPTLQVKVSPTSVPTTPRATPILQPRPQPQPQPQTQLQQQTVMITPTFSTTPQTRIIQQPLIYQNAATSFQVLQPQVQSLVTSSQVQPVTIQQQVQTVQAQRVLTQTANGTLQTLAPATVQTVAAPQVQQVPVLVQPQIIKTDSLVLTTLKTDGSPVMAAVQNPALTALTTPIQTAALQVPTLVGSSGTILTTMPVMMGQEKVPIKQVPGGVKQLEPPKEGERRTTHNIIEKRYRSSINDKIIELKDLVMGTDAKMHKSGVLRKAIDYIKYLQQVNHKLRQENMVLKLANQKNKLLKGIDLGSLVDNEVDLKIEDFNQNVLLMSPPASDSGSQAGFSPYSIDSEPGSPLLDDAKVKDEPDSPPVALGMVDRSRILLCVLTFLCLSFNPLTSLLQWGGAHDSDQHPHSGSGRSVLSFESGSGGWFDWMMPTLLLWLVNGVIVLSVFVKLLVHGEPVIRPHSRSSVTFWRHRKQADLDLARGDFAAAAGNLQTCLAVLGRALPTSRLDLACSLSWNVIRYSLQKLRLVRWLLKKVFQCRRATPATEAGFEDEAKTSARDAALAYHRLHQLHITGKLPAGSACSDVHMALCAVNLAECAEEKIPPSTLVEIHLTAAMGLKTRCGGKLGFLASYFLSRAQSLCGPEHSAVPDSLRWLCHPLGQKFFMERSWSVKSAAKESLYCAQRNPADPIAQVHQAFCKNLLERAIESLVKPQAKKKAGDQEEESCEFSSALEYLKLLHSFVDSVGVMSPPLSRSSVLKSALGPDIICRWWTSAITVAISWLQGDDAAVRSHFTKVERIPKALEVTESPLVKAIFHACRAMHASLPGKADGQQSSFCHCERASGHLWSSLNVSGATSDPALNHVVQLLTCDLLLSLRTALWQKQASASQAVGETYHASGAELAGFQRDLGSLRRLAHSFRPAYRKVFLHEATVRLMAGASPTRTHQLLEHSLRRRTTQSTKHGEVDAWPGQRERATAILLACRHLPLSFLSSPGQRAVLLAEAARTLEKVGDRRSCNDCQQMIVKLGGGTAIAAS [SREBF2]”, the thermal stability score in the data set with HeLa Kyoto [1] (setting [3]) was 7.8e-18; in the data set with HeLa Kyoto [1] (cell cycle stage: mitosis), 1.52e-16.
The like results for “MALCEAAGCGSALLWPRLLLFGDSITQFSFQQGGWGASLADRLVRKCDVLNRGFSGYNTRWAKIILPRLIRKGNSLDIPVAVTIFFGANDSALKDENPKQHIPLEEYAANLKSMVQYLKSVDIPENRVILITPTPLCETAWEEQCIIQGCKLNRLNSVVGEYANACLQVAQDCGTDVLDLWTLMQDSQDFSSYLSDGLHLSPKGNEFLFSHLWPLIEKKVSSLPLLLPYWRDVAEAKPELSLLGDGDH [IAH1]” were, in that order, 0.993 and -0.17.
For the substance SPG11, the thermal stability score in the data set with HeLa Kyoto [1] (setting [3]) is -0.413; in the data set on HeLa Kyoto [1] (cell cycle stage: mitosis), -0.459.
Regarding “MRRGERRDAGGPRPESPVPAGRASLEEPPDGPSAGQATGPGEGRRSTESEVYDDGTNTFFWRAHTLTVLFILTCTLGYVTLLEETPQDTAYNTKRGIVASILVFLCFGVTQAKDGPFSRPHPAYWRFWLCVSVVYELFLIFILFQTVQDGRQFLKYVDPKLGVPLPERDYGGNCLIYDPDNETDPFHNIWDKLDGFVPAHFLGWYLKTLMIRDWWMCMIISVMFEFLEYSLEHQLPNFSECWWDHWIMDVLVCNGLGIYCGMKTLEWLSLKTYKWQGLWNIPTYKGKMKRIAFQFTPYSWVRFEWKPASSLRRWLAVCGIILVFLLAELNTFYLKFVLWMPPEHYLVLLRLVFFVNVGGVAMREIYDFMDDPKPHKKLGPQAWLVAAITATELLIVVKYDPHTLTLSLPFYISQCWTLGSVLALTWTVWRFFLRDITLRYKETRWQKWQNKDDQGSTVGNGDQHPLGLDEDLLGPGVAEGEGAPTPN [PTDSS2]”, the figures for the thermal stability score in the data set on HeLa Kyoto [1] (setting [3]) and in the data set with HeLa Kyoto [1] (cell cycle stage: mitosis) were -0.906 and -3.56, respectively.
